From publication PMC4615246

Molecular target: T1, LacI-CFP-Nup50 (human), Q9UKX7
T1 chain: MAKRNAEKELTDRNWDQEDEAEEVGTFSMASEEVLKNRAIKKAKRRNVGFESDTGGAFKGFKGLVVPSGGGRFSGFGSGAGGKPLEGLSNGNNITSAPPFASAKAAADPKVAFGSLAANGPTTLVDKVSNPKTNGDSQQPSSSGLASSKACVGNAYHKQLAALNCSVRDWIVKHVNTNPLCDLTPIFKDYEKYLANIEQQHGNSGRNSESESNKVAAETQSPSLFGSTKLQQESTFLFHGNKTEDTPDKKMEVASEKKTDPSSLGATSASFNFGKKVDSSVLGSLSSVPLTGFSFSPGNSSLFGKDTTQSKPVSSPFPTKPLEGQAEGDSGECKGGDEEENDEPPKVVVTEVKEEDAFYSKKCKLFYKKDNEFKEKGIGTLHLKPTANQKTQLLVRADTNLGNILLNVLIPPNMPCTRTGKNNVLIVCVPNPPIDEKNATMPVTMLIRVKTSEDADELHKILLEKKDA
Assay: LacI/LacO array recruitment in cells
Conditions: remark: other sources report otherwise

B1: Nup93 (endogenous), Q8N1F7 1-819 (natural protein)
chain: MDTEGFGELLQQAEQLAAETEGISELPHVERNLQEIQQAGERLRSRTLTRTSQETADVKASVLLGSRGLDISHISQRLESLSAATTFEPLEPVKDTDIQGFLKNEKDNALLSAIEESRKRTFGMAEEYHRESMLVEWEQVKQRILHTLLASGEDALDFTQESEPSYISDVGPPGRSSLDNIEMAYARQIYIYNEKIVNGHLQPNLVDLCASVAELDDKSISDMWTMVKQMTDVLLTPATDALKNRSSVEVRMEFVRQALAYLEQSYKNYTLVTVFGNLHQAQLGGVPGTYQLVRSFLNIKLPAPLPGLQDGEVEGHPVWALIYYCMRCGDLLAASQVVNRAQHQLGEFKTWFQEYMNSKDRRLSPATENKLRLHYRRALRNNTDPYKRAVYCIIGRCDVTDNQSEVADKTEDYLWLKLNQVCFDDDGTSSPQDRLTLSQFQKQLLEDYGESHFTVNQQPFLYFQVLFLTAQFEAAVAFLFRMERLRCHAVHVALVLFELKLLLKSSGQSAQLLSHEPGDPPCLRRLNFVRLLMLYTRKFESTDPREALQYFYFLRDEKDSQGENMFLRCVSELVIESREFDMILGKLENDGSRKPGVIDKFTSDTKPIINKVASVAENKGLFEEAAKLYDLAKNADKVLELMNKLLSPVVPQISAPQSNKERLKNMALSIAERYRAQGISANKFVDSTFYLLLDLITFFDEYHSGHIDRAFDIIERLKLVPLNQESVEERVAAFRNFSDEIRHNLSEVLLATMNILFTQFKRLKGTSPSSSSRPQRVIEDRDSQLRSQARTLITFAGMIPYRTSGDTNARLVQMEVLMN
In the case of B1, the percent of transfected cells showing colocalization is reported as 28%.
